The values that follow come from patent publication US20050043510A1, “Affinity purification system using troponin molecules as affinity ligands” (priority 2003, published 2005).

Data set [1] deals with rabbit skeletal muscle troponin C (Oryctolagus cuniculus, UniProt P02586). The settings on record: in the presence of calcium; Hanson Pierce et al. (1998); cited from earlier work.
The next data set deals with calmodulin (Homo sapiens, UniProt P0DP23). The note with it: in the presence of calcium; Hanson Pierce et al. (1998); cited from earlier work.
The target of another data set is bovine serum albumin (Bos taurus, UniProt P02769). The note with it: in the presence of calcium; Hanson Pierce et al. (1998); cited from earlier work.
bovine serum albumin, sequence (P02769 25-607): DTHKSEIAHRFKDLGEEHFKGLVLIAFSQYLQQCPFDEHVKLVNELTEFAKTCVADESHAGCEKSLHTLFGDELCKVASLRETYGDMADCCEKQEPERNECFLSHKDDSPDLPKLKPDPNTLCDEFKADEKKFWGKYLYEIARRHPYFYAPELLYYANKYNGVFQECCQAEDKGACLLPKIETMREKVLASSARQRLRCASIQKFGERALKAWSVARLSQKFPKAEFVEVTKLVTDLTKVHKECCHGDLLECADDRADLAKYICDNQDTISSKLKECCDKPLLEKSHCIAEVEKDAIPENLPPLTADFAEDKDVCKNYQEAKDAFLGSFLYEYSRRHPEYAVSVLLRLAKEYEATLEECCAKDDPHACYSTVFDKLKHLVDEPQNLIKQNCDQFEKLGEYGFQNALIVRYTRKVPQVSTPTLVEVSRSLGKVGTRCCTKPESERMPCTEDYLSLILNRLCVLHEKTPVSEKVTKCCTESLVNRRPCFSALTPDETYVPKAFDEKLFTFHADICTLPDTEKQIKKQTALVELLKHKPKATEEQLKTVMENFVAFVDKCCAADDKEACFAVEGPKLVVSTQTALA
Data set [2] has as its system troponin C-tagged C-terminal truncated version of La/SSB (TnC-LaΔC).

rabbit skeletal muscle troponin C, sequence (P02586 whole entry): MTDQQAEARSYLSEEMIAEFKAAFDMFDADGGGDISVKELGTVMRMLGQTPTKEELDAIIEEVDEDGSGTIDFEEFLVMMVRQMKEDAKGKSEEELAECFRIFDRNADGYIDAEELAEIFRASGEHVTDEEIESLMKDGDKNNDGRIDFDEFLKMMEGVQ

Take “SRLDYLKSSLLHLGSR (SEQ ID NO:1) [Troponin C binding peptide, previously described (Hanson Pierce et al. 1998)]”: the results for the Calcium dependent binding entry (in data set [1]; in the data set with calmodulin; in the data set with bovine serum albumin) were “demonstrated”, “not” and “not”, respectively.
Regarding “biotinylated thrombin (Thrombin Cleavage Capture Kit, Novagen)”, the “thrombin proteolytic cleavage (SDS-PAGE)” value in data set [2] is listed as “apparent complete cleavage when 0.1 units of thrombin was used”.
